Targets include MKK7β(h) (human), O14733; CK1δ(h) (human), P48730; PKCβI(h) (human), P05771; PKG1α(h) (human), Q13976.
Holding throughout (test): cell-based or functional assay
In experiment [1] the target is JNK2α2(h) (human), P45984.
Experiment [2] deals with CaMKIδ(h) (human), Q8IU85.
The target of experiment [3] is CaMKIIδ(h) (human), Q13557.
Chain of CaMKIIδ(h) (human), Q13557 (Q13557 whole entry, stated change not applied): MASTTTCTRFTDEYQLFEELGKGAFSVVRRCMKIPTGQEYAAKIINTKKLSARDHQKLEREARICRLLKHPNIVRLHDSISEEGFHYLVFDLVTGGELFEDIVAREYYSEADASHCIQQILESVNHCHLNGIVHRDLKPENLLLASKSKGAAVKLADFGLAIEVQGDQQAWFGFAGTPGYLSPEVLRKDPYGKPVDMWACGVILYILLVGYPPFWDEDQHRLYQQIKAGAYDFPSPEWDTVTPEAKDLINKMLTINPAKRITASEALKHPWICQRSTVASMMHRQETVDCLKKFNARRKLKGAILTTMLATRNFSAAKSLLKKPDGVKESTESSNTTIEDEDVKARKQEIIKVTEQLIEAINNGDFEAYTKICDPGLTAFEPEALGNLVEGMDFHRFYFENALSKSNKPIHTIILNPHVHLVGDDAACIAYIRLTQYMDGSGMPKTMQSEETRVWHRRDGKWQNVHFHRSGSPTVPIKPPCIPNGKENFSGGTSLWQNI

Chain of CaMKIδ(h) (human), Q8IU85 (Q8IU85 whole entry, stated change not applied): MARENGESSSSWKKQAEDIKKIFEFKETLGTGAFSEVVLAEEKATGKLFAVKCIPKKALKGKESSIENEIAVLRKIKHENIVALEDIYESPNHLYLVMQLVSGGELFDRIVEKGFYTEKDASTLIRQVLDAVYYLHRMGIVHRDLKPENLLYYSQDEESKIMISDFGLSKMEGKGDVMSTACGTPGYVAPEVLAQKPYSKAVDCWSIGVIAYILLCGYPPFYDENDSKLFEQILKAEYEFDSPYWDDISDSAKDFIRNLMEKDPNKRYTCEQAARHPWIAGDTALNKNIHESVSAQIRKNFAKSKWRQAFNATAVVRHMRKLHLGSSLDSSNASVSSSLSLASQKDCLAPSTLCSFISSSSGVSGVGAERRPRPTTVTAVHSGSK
Chain of CK1δ(h) (human), P48730 (P48730 1-294, stated change not applied): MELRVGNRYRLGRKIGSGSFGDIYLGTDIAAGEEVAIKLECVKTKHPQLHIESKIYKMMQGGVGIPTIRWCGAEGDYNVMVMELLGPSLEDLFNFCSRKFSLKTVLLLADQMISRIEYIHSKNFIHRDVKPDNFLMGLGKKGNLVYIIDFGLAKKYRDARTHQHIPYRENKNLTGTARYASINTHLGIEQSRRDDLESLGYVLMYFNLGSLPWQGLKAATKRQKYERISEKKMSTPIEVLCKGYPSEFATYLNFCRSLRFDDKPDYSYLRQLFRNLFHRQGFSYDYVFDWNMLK
Chain of PKG1α(h) (human), Q13976 (Q13976 whole entry): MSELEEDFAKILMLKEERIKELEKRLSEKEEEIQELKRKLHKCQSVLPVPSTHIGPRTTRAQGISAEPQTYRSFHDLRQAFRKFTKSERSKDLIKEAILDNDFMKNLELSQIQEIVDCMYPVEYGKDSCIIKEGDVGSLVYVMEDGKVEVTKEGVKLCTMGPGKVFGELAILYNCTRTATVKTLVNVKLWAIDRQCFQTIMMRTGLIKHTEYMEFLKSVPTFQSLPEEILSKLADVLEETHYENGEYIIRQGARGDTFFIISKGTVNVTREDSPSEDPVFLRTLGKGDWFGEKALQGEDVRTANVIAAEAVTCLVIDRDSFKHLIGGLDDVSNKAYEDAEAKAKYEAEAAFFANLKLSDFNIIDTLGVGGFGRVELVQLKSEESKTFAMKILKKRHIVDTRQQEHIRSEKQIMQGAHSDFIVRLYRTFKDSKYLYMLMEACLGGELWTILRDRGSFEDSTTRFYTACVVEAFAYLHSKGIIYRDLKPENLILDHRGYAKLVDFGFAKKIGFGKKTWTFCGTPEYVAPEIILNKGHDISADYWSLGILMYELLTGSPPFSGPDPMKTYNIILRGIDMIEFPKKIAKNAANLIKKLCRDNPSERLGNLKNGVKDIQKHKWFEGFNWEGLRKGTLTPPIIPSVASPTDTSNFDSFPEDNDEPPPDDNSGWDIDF
Chain of PKCβI(h) (human), P05771 (P05771 whole entry): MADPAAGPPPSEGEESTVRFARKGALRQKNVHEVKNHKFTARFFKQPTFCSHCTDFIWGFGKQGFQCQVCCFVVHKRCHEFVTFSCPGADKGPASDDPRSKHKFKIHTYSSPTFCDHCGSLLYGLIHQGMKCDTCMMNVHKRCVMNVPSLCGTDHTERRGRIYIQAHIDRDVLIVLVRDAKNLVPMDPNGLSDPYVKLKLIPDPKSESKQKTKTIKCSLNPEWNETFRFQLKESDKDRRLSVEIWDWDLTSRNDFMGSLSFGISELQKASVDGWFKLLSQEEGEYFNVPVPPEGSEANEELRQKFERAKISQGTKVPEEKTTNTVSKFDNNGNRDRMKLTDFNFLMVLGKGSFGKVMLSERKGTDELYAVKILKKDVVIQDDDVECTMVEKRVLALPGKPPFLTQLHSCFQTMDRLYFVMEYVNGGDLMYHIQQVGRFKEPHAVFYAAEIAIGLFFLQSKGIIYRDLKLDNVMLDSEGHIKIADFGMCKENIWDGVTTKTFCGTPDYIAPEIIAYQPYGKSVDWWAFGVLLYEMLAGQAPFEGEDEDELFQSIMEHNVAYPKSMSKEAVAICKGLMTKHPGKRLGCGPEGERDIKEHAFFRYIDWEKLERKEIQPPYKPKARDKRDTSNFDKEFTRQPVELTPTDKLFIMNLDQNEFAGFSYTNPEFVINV
Chain of MKK7β(h) (human), O14733 (O14733 whole entry): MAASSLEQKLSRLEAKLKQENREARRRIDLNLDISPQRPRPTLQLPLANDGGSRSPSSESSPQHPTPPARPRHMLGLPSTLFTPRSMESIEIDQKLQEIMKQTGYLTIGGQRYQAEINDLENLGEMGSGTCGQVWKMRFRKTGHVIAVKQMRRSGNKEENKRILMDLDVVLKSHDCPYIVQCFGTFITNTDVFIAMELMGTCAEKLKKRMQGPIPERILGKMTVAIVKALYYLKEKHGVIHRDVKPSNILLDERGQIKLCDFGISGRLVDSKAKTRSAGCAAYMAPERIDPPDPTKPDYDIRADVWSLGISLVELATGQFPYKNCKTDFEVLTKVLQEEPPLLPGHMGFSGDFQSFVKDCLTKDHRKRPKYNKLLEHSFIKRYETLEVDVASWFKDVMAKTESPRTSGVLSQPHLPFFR

For KAFAKLAARLYRKALARQLGVAA [MMI-0400], the % activity in experiment [1] stood at 96%; in experiment [2], 17%; in experiment [3], 2%; with MKK7β(h) (human), O14733, 94%; in the experiment with CK1δ(h) (human), P48730, 93%; with PKCβI(h) (human), P05771, 78%. In the experiment with PKG1α(h) (human), Q13976, this molecule showed a % activity of 58%.
FAKLAARLYRKALARQLGVAA [MMI-0300]: the % activity came out at 98% in experiment [1]; 10% in experiment [2]; 1% in experiment [3]; 100% with MKK7β(h) (human), O14733; 92% in the experiment with CK1δ(h) (human), P48730; 78% with PKCβI(h) (human), P05771. In addition, the % activity with PKG1α(h) (human), Q13976 amounted to 64%.

Source of the values: US20160200782A1.
